Experimental findings from paper PMC5142293, “Characterization of spermidine hydroxycinnamoyl transferases from eggplant (Solanum melongena L.) and its wild relative Solanum richardii Dunal” (Horticulture Research, 2016) are described below.

Holding throughout (experiment): spectrophotometric acylation assay, microplate (absorbance loss of CoA ester)
Conditions in all cases: 2.5 mM polyamine acceptor (text b49: spermidine; table title and b21: spermine), pH 9.0, 30 °C, Tris-HCl, 10 mM EDTA

Substrate in series [1]: CC(C)(COP(=O)(O)OP(=O)(O)OC[C@H]1O[C@@H](n2cnc3c(N)ncnc32)[C@H](O)[C@@H]1OP(=O)(O)O)[C@@H](O)C(=O)NCCC(=O)NCCSC(=O)/C=C/c1ccc(O)cc1
It is filed as biochemical, Solanum virginianum. The text has this: (§1) spectrophotometric acylation assay, microplate (absorbance loss of CoA ester) on SmSHT

Substrate in series [2]: COc1cc(/C=C/C(=O)SCCNC(=O)CCNC(=O)[C@H](O)C(C)(C)COP(=O)(O)OP(=O)(O)OC[C@H]2O[C@@H](n3cnc4c(N)ncnc43)[C@H](O)[C@@H]2OP(=O)(O)O)ccc1O
Format: biochemical, Solanum virginianum.
Description: as §1

Substrate in series [3]: CC(C)(COP(=O)(O)OP(=O)(O)OC[C@H]1O[C@@H](n2cnc3c(N)ncnc32)[C@H](O)[C@@H]1OP(=O)(O)O)[C@@H](O)C(=O)NCCC(=O)NCCSC(=O)/C=C/c1ccc(O)c(O)c1
Format: biochemical, Solanum virginianum.
Description: as §1

Substrate in series [4]: CC(C)(COP(=O)(O)OP(=O)(O)OC[C@H]1O[C@@H](n2cnc3c(N)ncnc32)[C@H](O)[C@@H]1OP(=O)(O)O)[C@@H](O)C(=O)NCCC(=O)NCCSC(=O)/C=C/c1ccc(O)cc1
It is filed as biochemical, Solanum richardii. The text has this: (§2) spectrophotometric acylation assay, microplate (absorbance loss of CoA ester) on SrSHT

Substrate in series [5]: COc1cc(/C=C/C(=O)SCCNC(=O)CCNC(=O)[C@H](O)C(C)(C)COP(=O)(O)OP(=O)(O)OC[C@H]2O[C@@H](n3cnc4c(N)ncnc43)[C@H](O)[C@@H]2OP(=O)(O)O)ccc1O
It is filed as biochemical, Solanum richardii.
Description: as §2

Substrate in series [6]: CC(C)(COP(=O)(O)OP(=O)(O)OC[C@H]1O[C@@H](n2cnc3c(N)ncnc32)[C@H](O)[C@@H]1OP(=O)(O)O)[C@@H](O)C(=O)NCCC(=O)NCCSC(=O)/C=C/c1ccc(O)c(O)c1
It is filed as biochemical, Solanum richardii.
Description: as §2

B1: SmSHT (Solanum virginianum) (protein)
chain: MKVILKNHWVVKPAAPTWTGTVSLSEFDQTFAVTHVPTIYYYKFVQDFITSTDEIIKTLKTSLSEALVHFYPLAGRLRWISGSRLELECDASGVVLTEAETDAKLDDLDSFLLSPNYNSLFPRVDYTIPIDELPLLFVQLTKFQCGGIALSFAISHAVVDGHSALYFFSEWARLSRGEPLMFAPFHDRKVLRAGEPAIACPTFEHLQFNTPPLLIGKSSTENEKKKETKGSMLKLTKLQVEMLREKANQGRNLEDSRERSYTRYEVVTAHIWRCACKARGHKFEQPTNLCICVDIRRRMDPPLPSSYFGNAIVDVIATGASGDIVLSPLECAAKRVREAIKMVTSDYANSTINFLKKEEDLSKYQDIHAFRNKEGPFYGNPNLGVISWISLPVLGLDFGWGKEFHMSPGIHEYDGDCVILPDNEGDGSLTVAIVLQEAHVDAFKKFFYEDIEC
notes: full-length ORF, 453 residues, pET-32a(+) N-terminal His-tag (73 kDa with tag, 51 kDa predicted), E. coli, Ni-NTA purified
Turning to B1, in series [1], the Km came to 29.6 ± 5.8 µM, the kcat worked out at 3.02 ± 0.122 s⁻¹ and the kcat/Km worked out at 102000 ± 3330 M⁻¹ s⁻¹. In addition, in series [2], the Km was 27.3 ± 5.6 µM, the kcat came out at 3.87 ± 0.205 s⁻¹ and the kcat/Km came to 142000 ± 8330 M⁻¹ s⁻¹. Also, in series [3], the Km was determined as 58.3 ± 1.7 µM, the kcat is 7.36 ± 0.185 s⁻¹ and the kcat/Km is 127000 ± 3330 M⁻¹ s⁻¹.

B2: SrSHT (Solanum richardii) (protein)
chain: MKVILKNHWVVKPAAPTWTGTVSLSEFDQTFAVTHVPTIYYYKFVQDFITSTDEIIKTLKTSLSEALVHFYPLAGRLRWISGSRLELECDASGVVLTEAETDAKLDDLDSFLLSPNYNSLFPRVDYTIPIDELPLLFVQLTKFQCGGIALSFAISHAVVDGHSALYFFSEWARLSRGEPLMFAPFHDRKVLRAGEPAIASPTFEHLQFNTPPLLIGKSSTENEKKKETKGSMLKLTKLQVEMLREKANQGRNLEDSRERSYTRYEVVTAHIWRCACKARGHKFEQSTNLCICVDIRKRMDPPLPSSYFGNAIVDVIATGASGDIVSSPLECAAKRVREAIKMVTSDYANSTINFLKKEEDLSKYQDIHAFRNKEGPFYGNPNLGVISWISLPVLGLDFGWGEEFHMSPGIHEYDGDCVILPDNEGDGSLTVAIVLQEAHVDAFKKFFYEDIEC
notes: full-length ORF, 453 residues, pET-32a(+) N-terminal His-tag (73 kDa with tag, 51 kDa predicted), E. coli, Ni-NTA purified; natural ortholog differing from SmSHT by C200S, P286S, R297K, L326S, K402E
B2: in series [4], the Km was determined as 38.4 ± 3.3 µM, the kcat stood at 4.33 ± 0.243 s⁻¹ and the kcat/Km was determined as 113000 ± 6670 M⁻¹ s⁻¹. Besides, in series [5], the Km was 51.3 ± 10.6 µM, the turnover number (kcat) turned out to be 6.88 ± 1 s⁻¹ and the kcat/Km worked out at 133000 ± 20000 M⁻¹ s⁻¹. Moreover, in series [6], the Km is 67.1 ± 7.6 µM, the kcat came out at 10.1 ± 0.483 s⁻¹ and the kcat/Km was 150000 ± 6670 M⁻¹ s⁻¹.

In general, Km refers to the substrate concentration at which the rate is half of its maximum. As usually defined, the kcat is the maximal rate divided by the concentration of active sites. As usually defined, the kcat/Km is the turnover number divided by the Michaelis constant.
